# According to patent US20060073149A1 (published 2006):
# Biological target: T1, Soluble Aβ 1-40 (UniProt P05067 672-711)
# T1 construct: domain: Aβ 1-40
# Assay: SPR (BIAcore), alternate method: antibody captured on protein A or A/G, Aβ 1-40 in flow, 5 h dissociation, 1:1 model with mass transfer; alternate method: antibody captured on protein A or A/G, 5 h dissociation
# Method: Protein A or protein A/G is immobilized via amine coupling to flow cells 1 and 2 of a B1 or CM5 sensor chip (BIAcore). The test antibody is then captured in flow cell 2 at desired levels (usually a 10-60 second injection of antibody) and 5 minutes is allowed for the antibody to stabilize. […] Each concentration is injected over the surface for 5 minutes at a flow rate of 50 μL/min. […] Aβ 1-40 and antibody are then eluted from both flow cells with a 40 second injection of glycine (pH 1.5). The signal is allowed to stabilize for 2 minutes before the next cycle. The data from flow cell 1 is subtracted from flow cell 2 to account for any bulk shifts due to buffer differences or non-specific binding to the sensor chip or protein A. The various concentrations are injected randomly and each concentration is run in duplicate. Two 0 nM runs are used to control for any dissociation of antibody from the protein A or A/G capture surface. The data is analyzed using the Biaevalution software. A 1:1 model with mass transfer and a local Rmax is used as the best fit for the data.
binder,measurement,value
"humanized 266 antibody (antibody, human IgG1, kappa, V domains shown) VH: EVQLVESGGGLVQPGGSLRLSCAASGFTFSRYSMSWVRQAPGKGLELVAQINSVGNSTYYPDTVKGRFTISRDNAKNTLYLQMNSLRAEDTAVYYCASGDYWGQGTLVTVSS VL: DVVMTQSPLSLPVTLGQPASISCRSSQSLIYSDGNAYLHWFLQKPGQSPRLLIYKVSNRFSGVPDRFSGSGSGTDFTLKISRVEAEDVGVYYCSQSTHVPWTFGQGTKVEIKR",Kd,0.4 nM
